Molecular target: T1, HLA-DR1 (Homo sapiens, UniProt P01903+P01911, A100R/D57E/F55L/F60I/F76Y/I96L/L162R/M171V/P40L/Q125E/R42F/V115G/Y59C)
T1 construct: made in house; host or cells: Sf9 insect cells
Assay: Competition of synthetic peptides against 125I-labeled HA 307-319 for binding to "empty" HLA-DR1

Ki [µM] | Compound | relative binding affinity to DR1 (in words) (competitor peptides vs HA 307-319, "empty" DR1, at first approximation)
– | Ii 107-120: invariant chain peptide named in the text as highest-affinity competitor; probably the Ii 106-120 entry of Table 2 (MRMATPLLMQALPM) | highest affinity of all the competitor peptides measured
> 10 | CSCC[C@H](NC(=O)[C@H](CCCNC(=N)N)NC(=O)[C@H](CCSC)NC(=O)[C@H](CCCCN)NC(=O)[C@H](CO)NC(=O)[C@@H](NC(=O)[C@@H]1CCCN1C(=O)[C@H](CCCCN)NC(=O)[C@@H]1CCCN1C(=O)[C@@H]1CCCN1C(=O)[C@H](CCCCN)NC(=O)[C@@H]1CCCN1C(=O)[C@@H](N)CC(C)C)C(C)C)C(=O)N[C@@H](C)C(=O)N[C@H](C(=O)O)[C@@H](C)O [Ii 97-111] | –

— US5880103A, “Immunomodulatory peptides” (President and Fellows of Harvard College, priority 1995, dated 1999)
